Measured values reported in US20100203046A1 (Biogen, published 2010).
One block for each binder: values may come before it.

Columns and labels:
[1] = molecular target: T1, human C1q (Sigma C0660) (human, UniProt P02745 23-245; P02746 28-253; P02747 29-245); assay: C1q ELISA on CD2, purified
T1 construct: Bought protein; also called complement protein C1q
Method: The C1q binding assay was performed by coating 96 well Maxisorb ELISA plates (Nalge-Nunc Rochester, N.Y., USA) with 50 μl recombinant soluble human CD2 at 10 μg/ml overnight at 4° C. in PBS. The wells were aspirated and washed three times with wash buffer (PBS, 0.05% Tween 20) and blocked for >1 h with 200 μ/well of block/diluent buffer (0.1 M Na₂HPO₄, pH 7, 0.1 M NaCl, 0.05% Tween 20, 0.1% gelatin). The antibody to be tested was diluted in block/diluent buffer starting at 15 μg/ml with 3-fold dilutions. 50 μl were added per well, and the plates incubated for 2 h at room temperature. After aspirating and washing as above, 50 μl/well of 2 μg/ml of Sigma human C1q (C0660) diluted in block/diluent buffer was added and incubated for 1.5 h at room temperature. After aspirating and washing as above, 50 μl/well of chicken anti human C1q (Cedarlane laboratories CL2101AP), diluted 2,000-fold in block/diluent buffer, was added. After incubation for 1.5 h at room temperature, the wells were aspirated and washed as above. 50 μl/well of donkey F(ab′)₂ anti chicken IgY HRP conjugate (Jackson ImmunoResearch 703-036-155) diluted to 1:5,000 in block/diluent was then added, and the wells incubated for 1 h at room temperature. After aspirating and washing as above, 100 μl TMB substrate (420 μM TMB, 0.004% H₂O₂ in 0.1 M sodium acetate/citric acid buffer, pH 4.9) was added and incubated for 2 min before the reaction was stopped with 100 μl 2 N sulfuric acid. The absorbance was read at 450 nm with a Softmax P instrument, and Softmax software was used to determine the relative binding affinity (C value) with a 4-parameter fit.

[2] = molecular target: T2, human FcγRIII (CD16), CD16a (F158), on CD16-transfected Jurkat cells (human, UniProt P08637 17-254); assay: CD16 bridging assay, purified
T2 construct: whole, on cells

[3] = molecular target: T3, human FcγRI (CD64) on IFNγ-activated U937 cells (human, UniProt P12314 16-374); assay: CD64 bridging assay, purified
T3 construct: whole, on cells; also called FcγR1

[4] = molecular target: T2, human FcγRIII (CD16), CD16a (F158), on …; assay: CD16 bridging assay, transient
[5] = molecular target: T4, GST-tagged FcγRIII, CD16a (V158) (UniProt P08637 17-208, limits assumed); assay: AlphaScreen competition vs huIgG1 beads, purified
T4 construct: the canonical entry carries F there; Captured by biotinylated anti-GST mAb on streptavidin donor beads; also called GST-FcγRIII; not shown: GST tag
Method: The relative binding affinities to FcγRIII (CD16), of the variant antibodies, was determined using an AlphaScreen assay (Amplified Luminescent Proximity Homogeneous Assay, PerkinElmer, MA, USA). Laser excitation of a donor bead excites oxygen, which if in close proximity to an acceptor bead generates a cascade of chemiluminescent events, ultimately leading to fluorescence emission at 520-620 nm. […] The reaction was carried out for one hour in a 25 μl volume and plates were read in the Fusion Alpha reader (PerkinElmer).

[6] = molecular target: T2, human FcγRIII (CD16), CD16a (F158), on …; assay: CD16 bridging assay, transient; remark: listed apart in the source
[7] = molecular target: T2, human FcγRIII (CD16), CD16a (F158), on …; assay: CD16 bridging assay, purified; remark: listed apart in the source
[8] = molecular target: T2, human FcγRIII (CD16), CD16a (F158), on …; assay: CD16 bridging assay, transient; remark: listed apart in the source

T3 sequence (P12314 16-374): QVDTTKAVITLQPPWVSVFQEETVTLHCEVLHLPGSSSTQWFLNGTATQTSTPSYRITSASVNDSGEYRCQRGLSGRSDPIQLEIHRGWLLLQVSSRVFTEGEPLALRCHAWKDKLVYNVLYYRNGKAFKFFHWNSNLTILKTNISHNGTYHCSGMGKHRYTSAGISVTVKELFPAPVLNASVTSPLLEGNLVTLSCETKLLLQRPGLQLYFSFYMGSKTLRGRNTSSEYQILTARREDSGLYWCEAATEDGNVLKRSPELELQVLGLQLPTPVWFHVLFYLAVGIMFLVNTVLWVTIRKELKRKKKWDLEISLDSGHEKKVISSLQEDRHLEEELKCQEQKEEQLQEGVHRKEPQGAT
T4 sequence (P08637 17-208 F176V limits assumed): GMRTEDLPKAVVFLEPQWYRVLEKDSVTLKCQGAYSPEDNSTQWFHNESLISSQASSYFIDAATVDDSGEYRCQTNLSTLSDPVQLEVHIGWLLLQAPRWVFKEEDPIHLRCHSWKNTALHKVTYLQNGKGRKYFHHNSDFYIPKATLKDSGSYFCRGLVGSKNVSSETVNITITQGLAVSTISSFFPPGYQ
T2 sequence (P08637 17-254): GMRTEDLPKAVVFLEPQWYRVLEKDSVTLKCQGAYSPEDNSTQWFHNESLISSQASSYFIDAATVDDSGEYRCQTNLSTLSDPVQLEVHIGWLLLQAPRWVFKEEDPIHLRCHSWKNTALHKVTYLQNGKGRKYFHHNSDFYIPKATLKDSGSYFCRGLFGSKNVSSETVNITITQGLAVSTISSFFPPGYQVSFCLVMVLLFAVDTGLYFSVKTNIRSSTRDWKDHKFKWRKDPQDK
T1 sequence (P02745 23-245 limits assumed, chain 1 of 3): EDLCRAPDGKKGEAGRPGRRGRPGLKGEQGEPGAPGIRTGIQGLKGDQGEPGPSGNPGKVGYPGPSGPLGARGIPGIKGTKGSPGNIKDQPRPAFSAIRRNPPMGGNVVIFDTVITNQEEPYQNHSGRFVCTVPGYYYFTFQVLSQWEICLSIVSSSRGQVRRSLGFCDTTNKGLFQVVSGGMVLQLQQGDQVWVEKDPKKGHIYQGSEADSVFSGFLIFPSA
T1 sequence (P02746 28-253 limits assumed, chain 2 of 3): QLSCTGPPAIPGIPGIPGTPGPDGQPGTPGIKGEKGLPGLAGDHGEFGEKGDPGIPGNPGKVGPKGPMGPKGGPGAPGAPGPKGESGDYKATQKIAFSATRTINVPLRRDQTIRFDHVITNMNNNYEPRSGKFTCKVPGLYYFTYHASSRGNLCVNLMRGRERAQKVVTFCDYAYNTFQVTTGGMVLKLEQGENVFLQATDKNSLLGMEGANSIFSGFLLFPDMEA
T1 sequence (P02747 29-245 limits assumed, chain 3 of 3): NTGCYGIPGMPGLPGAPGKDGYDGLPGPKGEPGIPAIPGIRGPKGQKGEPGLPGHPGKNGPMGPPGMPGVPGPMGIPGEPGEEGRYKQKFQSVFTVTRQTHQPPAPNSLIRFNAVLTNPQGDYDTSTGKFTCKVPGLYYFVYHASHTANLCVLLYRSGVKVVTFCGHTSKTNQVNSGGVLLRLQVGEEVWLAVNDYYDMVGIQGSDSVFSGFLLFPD

B1: chCB6-huIgG1 S239D (antibody, name in EU numbering)
heavy: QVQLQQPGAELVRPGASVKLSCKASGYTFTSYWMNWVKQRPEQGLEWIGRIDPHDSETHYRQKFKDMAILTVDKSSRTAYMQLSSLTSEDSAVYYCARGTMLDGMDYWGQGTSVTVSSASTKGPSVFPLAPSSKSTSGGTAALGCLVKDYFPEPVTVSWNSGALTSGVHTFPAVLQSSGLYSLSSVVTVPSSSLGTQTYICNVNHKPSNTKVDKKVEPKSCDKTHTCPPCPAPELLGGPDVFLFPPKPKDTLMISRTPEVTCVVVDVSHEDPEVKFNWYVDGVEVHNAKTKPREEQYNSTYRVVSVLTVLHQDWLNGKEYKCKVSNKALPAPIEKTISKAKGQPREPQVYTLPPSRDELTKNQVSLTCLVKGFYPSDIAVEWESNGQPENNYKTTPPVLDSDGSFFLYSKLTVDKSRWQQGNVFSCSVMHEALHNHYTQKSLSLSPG
light: QIVLTQSPAIMSASPGEKVTMTCRASSSVSHMHWYQQKSGTSPKRWIYDTSKLASGVPARFSGSGSGTSYSLTISSVEAEDAATYYCQQWSSNPLTFGAGTKLELKRTVAAPSVFIFPPSDEQLKSGTASVVCLLNNFYPREAKVQWKVDNALQSGNSQESVTEQDSKDSTYSLSSTLTLSKADYEKHKVYACEVTHQGLSSPVTKSFNRGEC
notes: copies: 2 + 2
- fold decrease in binding vs WT [1]: 2 fold
- fold increase in binding vs WT [2]: 6 fold
- binding result [3]: binds
- fold increase in binding vs WT [4]: 6 fold
- fold increase in binding vs WT [5]: 9 fold

B2: chCB6-huIgG1 I332D (antibody, name in EU numbering)
heavy: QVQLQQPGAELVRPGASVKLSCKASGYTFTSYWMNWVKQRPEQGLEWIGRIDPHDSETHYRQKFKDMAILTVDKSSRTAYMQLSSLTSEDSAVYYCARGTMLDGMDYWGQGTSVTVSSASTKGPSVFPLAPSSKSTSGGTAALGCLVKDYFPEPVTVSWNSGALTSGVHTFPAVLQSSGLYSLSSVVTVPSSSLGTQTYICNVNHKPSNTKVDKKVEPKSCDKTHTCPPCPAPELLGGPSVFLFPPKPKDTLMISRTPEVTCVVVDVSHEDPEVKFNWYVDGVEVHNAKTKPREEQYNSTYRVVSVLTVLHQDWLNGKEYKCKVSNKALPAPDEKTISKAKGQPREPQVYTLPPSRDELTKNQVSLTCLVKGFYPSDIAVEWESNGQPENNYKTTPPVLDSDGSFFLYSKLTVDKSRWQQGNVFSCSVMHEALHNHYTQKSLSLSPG
light: QIVLTQSPAIMSASPGEKVTMTCRASSSVSHMHWYQQKSGTSPKRWIYDTSKLASGVPARFSGSGSGTSYSLTISSVEAEDAATYYCQQWSSNPLTFGAGTKLELKRTVAAPSVFIFPPSDEQLKSGTASVVCLLNNFYPREAKVQWKVDNALQSGNSQESVTEQDSKDSTYSLSSTLTLSKADYEKHKVYACEVTHQGLSSPVTKSFNRGEC
notes: copies: 2 + 2
- binding result [1]: binds
- fold increase in binding vs WT [2]: 9 fold
- binding result [3]: binds
- fold increase in binding vs WT [4]: 15 fold
- fold increase in binding vs WT [5]: 4 fold

B5: chCB6-huIgG1 H268P (antibody, name in EU numbering)
heavy: not shown
light: QIVLTQSPAIMSASPGEKVTMTCRASSSVSHMHWYQQKSGTSPKRWIYDTSKLASGVPARFSGSGSGTSYSLTISSVEAEDAATYYCQQWSSNPLTFGAGTKLELKRTVAAPSVFIFPPSDEQLKSGTASVVCLLNNFYPREAKVQWKVDNALQSGNSQESVTEQDSKDSTYSLSSTLTLSKADYEKHKVYACEVTHQGLSSPVTKSFNRGEC
notes: copies: 2 + 2
- fold decrease in binding vs WT [6]: 3 fold

B6: chCB6-huIgG1 H268D (antibody, name in EU numbering)
heavy: not shown
light: QIVLTQSPAIMSASPGEKVTMTCRASSSVSHMHWYQQKSGTSPKRWIYDTSKLASGVPARFSGSGSGTSYSLTISSVEAEDAATYYCQQWSSNPLTFGAGTKLELKRTVAAPSVFIFPPSDEQLKSGTASVVCLLNNFYPREAKVQWKVDNALQSGNSQESVTEQDSKDSTYSLSSTLTLSKADYEKHKVYACEVTHQGLSSPVTKSFNRGEC
notes: copies: 2 + 2
- fold increase in binding vs WT [6]: 3 fold

B7: chCB6-huIgG1 A330H (antibody, name in EU numbering)
heavy: not shown
light: QIVLTQSPAIMSASPGEKVTMTCRASSSVSHMHWYQQKSGTSPKRWIYDTSKLASGVPARFSGSGSGTSYSLTISSVEAEDAATYYCQQWSSNPLTFGAGTKLELKRTVAAPSVFIFPPSDEQLKSGTASVVCLLNNFYPREAKVQWKVDNALQSGNSQESVTEQDSKDSTYSLSSTLTLSKADYEKHKVYACEVTHQGLSSPVTKSFNRGEC
notes: copies: 2 + 2
- binding result [6]: binds

B8: chCB6-huIgG1 S239E/I332D (antibody, name in EU numbering)
heavy: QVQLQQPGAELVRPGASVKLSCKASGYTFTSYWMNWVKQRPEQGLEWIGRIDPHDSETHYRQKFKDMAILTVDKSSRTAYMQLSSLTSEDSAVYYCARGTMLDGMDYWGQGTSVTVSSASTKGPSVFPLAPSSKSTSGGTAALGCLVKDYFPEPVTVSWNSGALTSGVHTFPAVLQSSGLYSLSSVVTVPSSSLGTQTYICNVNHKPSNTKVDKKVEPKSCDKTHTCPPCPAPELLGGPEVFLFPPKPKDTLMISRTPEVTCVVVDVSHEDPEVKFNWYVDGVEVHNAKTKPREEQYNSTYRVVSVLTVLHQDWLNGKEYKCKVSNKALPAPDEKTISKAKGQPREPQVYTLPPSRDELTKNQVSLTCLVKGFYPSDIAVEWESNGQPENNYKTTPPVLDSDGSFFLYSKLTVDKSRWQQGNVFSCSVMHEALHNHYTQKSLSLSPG
light: QIVLTQSPAIMSASPGEKVTMTCRASSSVSHMHWYQQKSGTSPKRWIYDTSKLASGVPARFSGSGSGTSYSLTISSVEAEDAATYYCQQWSSNPLTFGAGTKLELKRTVAAPSVFIFPPSDEQLKSGTASVVCLLNNFYPREAKVQWKVDNALQSGNSQESVTEQDSKDSTYSLSSTLTLSKADYEKHKVYACEVTHQGLSSPVTKSFNRGEC
notes: copies: 2 + 2
- binding result [1]: binds
- fold increase in binding vs WT [7]: 8 fold
- fold increase in binding vs WT [8]: 3 fold
- fold increase in binding vs WT [5]: 7 fold

B10: chCB6-huIgG1 G236A (antibody, name in EU numbering)
heavy: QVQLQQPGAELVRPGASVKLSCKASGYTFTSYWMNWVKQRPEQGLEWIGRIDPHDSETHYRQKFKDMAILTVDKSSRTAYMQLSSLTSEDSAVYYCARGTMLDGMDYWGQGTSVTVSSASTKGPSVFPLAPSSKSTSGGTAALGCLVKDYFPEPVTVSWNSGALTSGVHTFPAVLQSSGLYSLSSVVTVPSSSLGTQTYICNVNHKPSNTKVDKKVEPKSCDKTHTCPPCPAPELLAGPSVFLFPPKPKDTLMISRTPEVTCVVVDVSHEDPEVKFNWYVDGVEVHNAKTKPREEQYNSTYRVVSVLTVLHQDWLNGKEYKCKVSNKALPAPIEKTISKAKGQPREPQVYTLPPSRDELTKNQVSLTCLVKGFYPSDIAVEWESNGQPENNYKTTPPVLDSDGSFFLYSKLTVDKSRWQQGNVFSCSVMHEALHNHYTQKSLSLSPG
light: QIVLTQSPAIMSASPGEKVTMTCRASSSVSHMHWYQQKSGTSPKRWIYDTSKLASGVPARFSGSGSGTSYSLTISSVEAEDAATYYCQQWSSNPLTFGAGTKLELKRTVAAPSVFIFPPSDEQLKSGTASVVCLLNNFYPREAKVQWKVDNALQSGNSQESVTEQDSKDSTYSLSSTLTLSKADYEKHKVYACEVTHQGLSSPVTKSFNRGEC
notes: copies: 2 + 2
- fold decrease in binding vs WT [6]: 2 fold

B12: chCB6-huIgG1 L234Q (antibody, name in EU numbering)
heavy: not shown
light: QIVLTQSPAIMSASPGEKVTMTCRASSSVSHMHWYQQKSGTSPKRWIYDTSKLASGVPARFSGSGSGTSYSLTISSVEAEDAATYYCQQWSSNPLTFGAGTKLELKRTVAAPSVFIFPPSDEQLKSGTASVVCLLNNFYPREAKVQWKVDNALQSGNSQESVTEQDSKDSTYSLSSTLTLSKADYEKHKVYACEVTHQGLSSPVTKSFNRGEC
notes: copies: 2 + 2
- fold decrease in binding vs WT [6]: 5 fold

B13: chCB6-huIgG1 S239E/I332E (antibody, name in EU numbering)
heavy: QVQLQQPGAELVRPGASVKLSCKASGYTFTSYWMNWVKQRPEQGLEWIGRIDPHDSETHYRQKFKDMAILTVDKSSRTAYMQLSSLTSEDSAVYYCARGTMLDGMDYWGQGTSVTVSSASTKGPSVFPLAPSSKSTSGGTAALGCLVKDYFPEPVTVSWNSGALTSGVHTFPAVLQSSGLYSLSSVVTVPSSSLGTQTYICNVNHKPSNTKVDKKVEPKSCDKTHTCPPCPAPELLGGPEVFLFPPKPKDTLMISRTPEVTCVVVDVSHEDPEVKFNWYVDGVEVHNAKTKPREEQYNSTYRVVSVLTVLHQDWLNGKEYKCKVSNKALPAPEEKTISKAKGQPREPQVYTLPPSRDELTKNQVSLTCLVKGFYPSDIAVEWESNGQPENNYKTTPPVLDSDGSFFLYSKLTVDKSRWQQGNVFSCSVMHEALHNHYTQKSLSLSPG
light: QIVLTQSPAIMSASPGEKVTMTCRASSSVSHMHWYQQKSGTSPKRWIYDTSKLASGVPARFSGSGSGTSYSLTISSVEAEDAATYYCQQWSSNPLTFGAGTKLELKRTVAAPSVFIFPPSDEQLKSGTASVVCLLNNFYPREAKVQWKVDNALQSGNSQESVTEQDSKDSTYSLSSTLTLSKADYEKHKVYACEVTHQGLSSPVTKSFNRGEC
notes: copies: 2 + 2
- binding result [1]: binds
- fold increase in binding vs WT [7]: 6 fold
- fold increase in binding vs WT [8]: 3 fold
- fold increase in binding vs WT [5]: 10 fold

The remaining lines, values ahead:

- binding result [6]: no binding
B3: chCB6-huIgG1 S239H (antibody, name in EU numbering)
heavy: not shown
light: QIVLTQSPAIMSASPGEKVTMTCRASSSVSHMHWYQQKSGTSPKRWIYDTSKLASGVPARFSGSGSGTSYSLTISSVEAEDAATYYCQQWSSNPLTFGAGTKLELKRTVAAPSVFIFPPSDEQLKSGTASVVCLLNNFYPREAKVQWKVDNALQSGNSQESVTEQDSKDSTYSLSSTLTLSKADYEKHKVYACEVTHQGLSSPVTKSFNRGEC
notes: copies: 2 + 2

- fold decrease in binding vs WT [1]: 2 fold
- fold increase in binding vs WT [2]: 3 fold
- binding result [3]: binds
- fold increase in binding vs WT [4]: 4 fold
- fold increase in binding vs WT [5]: 8 fold
B4: chCB6-huIgG1 S239E (antibody, name in EU numbering)
heavy: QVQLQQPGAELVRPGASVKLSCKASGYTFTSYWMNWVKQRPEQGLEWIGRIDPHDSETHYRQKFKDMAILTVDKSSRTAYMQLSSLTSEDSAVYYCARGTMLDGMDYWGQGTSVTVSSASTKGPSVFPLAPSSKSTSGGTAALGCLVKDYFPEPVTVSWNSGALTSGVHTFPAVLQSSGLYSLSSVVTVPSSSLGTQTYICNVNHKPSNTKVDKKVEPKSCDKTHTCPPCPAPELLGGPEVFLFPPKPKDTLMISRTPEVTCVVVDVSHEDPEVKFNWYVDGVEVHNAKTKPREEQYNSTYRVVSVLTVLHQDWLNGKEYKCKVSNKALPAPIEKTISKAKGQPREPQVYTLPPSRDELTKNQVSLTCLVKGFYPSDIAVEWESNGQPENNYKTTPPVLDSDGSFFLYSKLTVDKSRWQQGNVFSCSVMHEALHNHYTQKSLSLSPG
light: QIVLTQSPAIMSASPGEKVTMTCRASSSVSHMHWYQQKSGTSPKRWIYDTSKLASGVPARFSGSGSGTSYSLTISSVEAEDAATYYCQQWSSNPLTFGAGTKLELKRTVAAPSVFIFPPSDEQLKSGTASVVCLLNNFYPREAKVQWKVDNALQSGNSQESVTEQDSKDSTYSLSSTLTLSKADYEKHKVYACEVTHQGLSSPVTKSFNRGEC
notes: copies: 2 + 2

- binding result [6]: no binding
B9: chCB6-huIgG1 S239P (antibody, name in EU numbering)
heavy: not shown
light: QIVLTQSPAIMSASPGEKVTMTCRASSSVSHMHWYQQKSGTSPKRWIYDTSKLASGVPARFSGSGSGTSYSLTISSVEAEDAATYYCQQWSSNPLTFGAGTKLELKRTVAAPSVFIFPPSDEQLKSGTASVVCLLNNFYPREAKVQWKVDNALQSGNSQESVTEQDSKDSTYSLSSTLTLSKADYEKHKVYACEVTHQGLSSPVTKSFNRGEC
notes: copies: 2 + 2

- fold increase in binding vs WT [7]: 6 fold
- fold increase in binding vs WT [8]: 3 fold
B11: chCB6-huIgG1 S239D/H435S (antibody, name in EU numbering)
heavy: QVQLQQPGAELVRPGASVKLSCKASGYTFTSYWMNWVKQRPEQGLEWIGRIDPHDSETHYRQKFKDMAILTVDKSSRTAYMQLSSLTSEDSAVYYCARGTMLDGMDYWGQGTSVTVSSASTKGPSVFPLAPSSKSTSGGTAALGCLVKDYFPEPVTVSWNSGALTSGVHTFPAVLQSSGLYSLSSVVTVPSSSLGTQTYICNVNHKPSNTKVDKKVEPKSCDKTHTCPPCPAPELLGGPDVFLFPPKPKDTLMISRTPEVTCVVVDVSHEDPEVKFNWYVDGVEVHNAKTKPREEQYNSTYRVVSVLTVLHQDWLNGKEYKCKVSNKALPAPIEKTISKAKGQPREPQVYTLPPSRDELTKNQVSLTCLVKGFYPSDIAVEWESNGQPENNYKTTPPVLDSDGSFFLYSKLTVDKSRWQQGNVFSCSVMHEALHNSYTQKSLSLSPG
light: QIVLTQSPAIMSASPGEKVTMTCRASSSVSHMHWYQQKSGTSPKRWIYDTSKLASGVPARFSGSGSGTSYSLTISSVEAEDAATYYCQQWSSNPLTFGAGTKLELKRTVAAPSVFIFPPSDEQLKSGTASVVCLLNNFYPREAKVQWKVDNALQSGNSQESVTEQDSKDSTYSLSSTLTLSKADYEKHKVYACEVTHQGLSSPVTKSFNRGEC
notes: copies: 2 + 2

- fold decrease in binding vs WT [6]: 3 fold
B14: chCB6-huIgG1 L328T (antibody, name in EU numbering)
heavy: not shown
light: QIVLTQSPAIMSASPGEKVTMTCRASSSVSHMHWYQQKSGTSPKRWIYDTSKLASGVPARFSGSGSGTSYSLTISSVEAEDAATYYCQQWSSNPLTFGAGTKLELKRTVAAPSVFIFPPSDEQLKSGTASVVCLLNNFYPREAKVQWKVDNALQSGNSQESVTEQDSKDSTYSLSSTLTLSKADYEKHKVYACEVTHQGLSSPVTKSFNRGEC
notes: copies: 2 + 2
